These results are taken from patent publication US20250382363A1 (NUMAB THERAPEUTICS, published 2025).

Changes are numbered by the printed parent chain. In names and notes the source's numbering stands.

Sequences and labels used below:
B1: PRO2230 (scFv 37-20-B03-sc09.1) (scFv)
scFv: DIQMTQSPASLSASVGDRVTITCQASQSIGTYLAWYQQKPGKPPKLLIYRAFILASGVPSRFSGSGSGTDFTLTISSLQPEDFATYYCQSNFYSDSTTIGPNAFGTGTKVTVLGGGGGSGGGGSGGGGSGGGGSEVQLVESGGGLVQPGGSLRLSCAASGFSFNSDYWIYWVRQAPGKGLEWIASIYGGSSGNTQYASWAQGRFTISRDNSKNTVYLQMNSLRAEDTAVYFCARGYVDYGGATDLWGQGTLVTVSS
notes: also called PRO2230 wt; a-PD-L1 wt
B2: PRO2986 (scFv 37-20-B03-sc09.1_(T146A)) (scFv)
scFv: B1 scFv with T253A
notes: PRO2230 variant; VH substitution, AHo numbering; also called PRO2230 T146A
B3: PRO3309 (scFv 37-20-B03-sc09.1_(L12R, T101S, L144A, T146Q)) (scFv)
scFv: B1 scFv with L145R, T227S, L251A, T253Q
notes: PRO2230 variant; VH substitutions, AHo numbering; also called PRO2230 L12R-T101S-L144A-T146Q
B4: PRO2984 (scFv 37-20-B03-sc09.1_(L12S, V103T, L144T)) (scFv)
scFv: B1 scFv with L145S, V229T, L251T
notes: VH substitutions, AHo numbering; also called PRO2230-L12S-V103T-L144T
B5: PRO3308 (scFv 37-20-B03-sc09.1_(L12A, T101S, L144K, T146Q)) (scFv)
scFv: B1 scFv with L145A, T227S, L251K, T253Q
notes: PRO2230 variant; VH substitutions, AHo numbering; also called PRO2230 L12A-T101S-L144K-T146Q
B6: PRO3307 (scFv 37-20-B03-sc09.1_(L12A, T101S, L144A, T146R)) (scFv)
scFv: B1 scFv with L145A, T227S, L251A, T253R
notes: PRO2230 variant; VH substitutions, AHo numbering; also called PRO2230 L12A-T101S-L144A-T146R
B7: PRO2950 (scFv 37-20-B03-sc09.1_(T146Q)) (scFv)
scFv: B1 scFv with T253Q
notes: PRO2230 variant; VH substitution, AHo numbering; also called PRO2230 T146Q
B8: PRO2947 (scFv 37-20-B03-sc09.1_(T146K)) (scFv)
scFv: B1 scFv with T253K
notes: PRO2230 variant; VH substitution, AHo numbering; also called PRO2230 T146K
B9: PRO2951 (scFv 37-20-B03-sc09.1_(T101R)) (scFv)
scFv: B1 scFv with T227R
notes: PRO2230 variant; VH substitution, AHo numbering; also called PRO2230 T101R
B10: PRO2913 (scFv 37-20-B03-sc09.1_(T101S, T146Q)) (scFv)
scFv: B1 scFv with T227S, T253Q
notes: PRO2230 variant; VH substitutions, AHo numbering; also called PRO2230 T101S-T146Q
B11: PRO2949 (scFv 37-20-B03-sc09.1_(T146E)) (scFv)
scFv: B1 scFv with T253E
notes: PRO2230 variant; VH substitution, AHo numbering; also called PRO2230 T146E
B12: PRO2933 (scFv 37-20-B03-sc09.1_(L144K, T146E, S148K)) (scFv)
scFv: B1 scFv with L251K, T253E, S255K
notes: PRO2230 variant; VH substitutions, AHo numbering; also called PRO2230 L144K-T146E-S148K
B13: PRO3311 (scFv 37-20-B03-sc09.1_(L12A, T101Q, L144A, T146Q)) (scFv)
scFv: B1 scFv with L145A, T227Q, L251A, T253Q
notes: PRO2230 variant; VH substitutions, AHo numbering; also called PRO2230 L12A-T101Q-L144A-T146Q
B14: PRO2985 (scFv 37-20-B03-sc09.1_(T101A)) (scFv)
scFv: B1 scFv with T227A
notes: PRO2230 variant; VH substitution, AHo numbering; also called PRO2230 T101A
B15: PRO3312 (scFv 37-20-B03-sc09.1_(T101R, T146Q)) (scFv)
scFv: B1 scFv with T227R, T253Q
notes: PRO2230 variant; VH substitutions, AHo numbering; also called PRO2230 T101R-T146Q
B16: PRO3310 (scFv 37-20-B03-sc09.1_(L12R, T101R, L144A, T146Q)) (scFv)
scFv: B1 scFv with L145R, T227R, L251A, T253Q
notes: PRO2230 variant; VH substitutions, AHo numbering; also called PRO2230 L12R-T101R-L144A-T146Q
B17: PRO2988 (scFv 37-20-B03-sc09.1_(P48A)) (scFv)
scFv: B1 scFv with P176A
notes: PRO2230 variant; VH substitution, AHo numbering; also called PRO2230 P48A
B18: PRO2915 (scFv 37-20-B03-sc09.1_(L12A, T101S, L144A, T146Q)) (scFv)
scFv: B1 scFv with L145A, T227S, L251A, T253Q
notes: PRO2230 variant; VH substitutions, AHo numbering; also called PRO2230 L12A-T101S-L144A-T146Q
B19: PRO2948 (scFv 37-20-B03-sc09.1_(T146R)) (scFv)
scFv: B1 scFv with T253R
notes: PRO2230 variant; VH substitution, AHo numbering; also called PRO2230 T146R
B20: PRO2952 (scFv 37-20-B03-sc09.1_(T101S)) (scFv)
scFv: B1 scFv with T227S
notes: PRO2230 variant; VH substitution, AHo numbering; also called PRO2230 T101S
B21: PRO2987 (scFv 37-20-B03-sc09.1_(P15A)) (scFv)
scFv: B1 scFv with P148A
notes: PRO2230 variant; VH substitution, AHo numbering; also called PRO2230 P15A
B22: PRO2935 (scFv 37-20-B03-sc09.1_(L144A, S148N)) (scFv)
scFv: B1 scFv with L251A, S255N
notes: PRO2230 variant; VH substitutions, AHo numbering; also called PRO2230 L144A-S148N
B23: PRO2903 (scFv 37-20-B03-sc09.1_(L12R, V103T, L144Q)) (scFv)
scFv: B1 scFv with L145R, V229T, L251Q
notes: VH substitutions, AHo numbering; also called PRO2230-L12R-V103T-L144Q
B24: PRO3306 (scFv 37-20-B03-sc09.1_(L12A, T101R, L144A, T146Q)) (scFv)
scFv: B1 scFv with L145A, T227R, L251A, T253Q
notes: PRO2230 variant; VH substitutions, AHo numbering; also called PRO2230 L12A-T101R-L144A-T146Q
B25: PRO2914 (scFv 37-20-B03-sc09.1_(T101S, L144A, T146Q)) (scFv)
scFv: B1 scFv with T227S, L251A, T253Q
notes: PRO2230 variant; VH substitutions, AHo numbering; also called PRO2230 T101S-L144A-T146Q
B26: PRO2934 (scFv 37-20-B03-sc09.1_(L144K, S148L)) (scFv)
scFv: B1 scFv with L251K, S255L
notes: PRO2230 variant; VH substitutions, AHo numbering; also called PRO2230 L144K-S148L

T1 sequence (Q9NZQ7 19-239 limits assumed): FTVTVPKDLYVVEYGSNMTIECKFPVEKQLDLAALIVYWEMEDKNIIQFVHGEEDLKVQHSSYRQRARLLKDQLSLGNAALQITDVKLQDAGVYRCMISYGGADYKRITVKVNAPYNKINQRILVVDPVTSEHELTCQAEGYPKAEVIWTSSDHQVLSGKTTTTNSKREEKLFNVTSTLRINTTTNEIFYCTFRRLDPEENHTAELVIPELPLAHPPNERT

One assay concerns the target T1, human a-PD-L1 Fc (Sino Biological, 10084-H02H, LC11NO2402) (human, UniProt Q9NZQ7 19-239).
T1 construct: Bought Fc fusion immobilised on the SPR chip; Printed as 'a-PD-L1 Fc' but used as the antigen (ligand) for the anti-PD-L1 scFvs; also called Human PD-L1; not shown: Fc part
Put plainly: SPR, PD-L1 Fc immobilised, scFv analyte, 1:1 fit. As to the method: The mutation variants were then injected at concentrations of 10 nM, 2 nM and 0.4 nM over the ligand-immobilized and reference spots. The wild type variants were used as a control, while an empty spot was used as reference.
After each cycle with analyte, the surface was regenerated with a 3M MgCl₂ solution, thereby allowing the next analyte cycle to have only free ligand available. Binding affinity KD was globally calculated by the Bruker SPR software based on the binding association (kₒₙ) and dissociation (Koff) rate, by fitting a 1:1 Langmuir model to the curves obtained by the cycles with the three different concentrations of the analyte.
In general terms: SPR reads the build-up and loss of mass on a sensor chip optically.
In the case of B1, binding was characterised by a dissociation constant (Kd) of 0.049 nM and the n-fold to wt is 1 fold.
As for B2, the dissociation constant (Kd) was found to be 0.069 nM and the n-fold to wt was found to be 1.4 fold.
On the same counts, the results for B3 are 0.026 nM and 0.5 fold.
On the same counts, the results for B4 are 0.036 nM and 0.7 fold.
In the same order, the values of B5 are 0.036 nM and 0.7 fold.
Turning to B6, the Kd worked out at 0.027 nM and the n-fold to wt is 0.6 fold.
In the same order, the values of B7 are 0.064 nM and 1.3 fold.
In the case of B8, the affinity, expressed as Kd, was 0.041 nM and the n-fold to wt is 0.8 fold.
Take B9: the Kd was 0.042 nM and the n-fold to wt was 0.9 fold.
With B10, the Kd was 0.058 nM and the n-fold to wt worked out at 1.2 fold.
In the same order, the values of B11 are 0.056 nM and 1.1 fold.
In the same order, the values of B12 are 0.045 nM and 0.9 fold.
In the same order, the values of B13 are 0.048 nM and 1 fold.
On to B14, for which the Kd was found to be 0.047 nM and the n-fold to wt came to 1 fold.
In the same order, the values of B15 are 0.041 nM and 0.8 fold.
Consider B16, for which the affinity, expressed as Kd, was 0.038 nM and the n-fold to wt worked out at 0.8 fold.
In the same order, the values of B17 are 0.034 nM and 0.7 fold.
Take B18: the dissociation constant Kd was 0.05 nM and the n-fold to wt is 1 fold.
On the same counts, the results for B19 are 0.064 nM and 1.3 fold.
In the same order, the values of B20 are 0.036 nM and 0.7 fold.
As for B21, binding was characterised by a dissociation constant (Kd) of 0.048 nM and the n-fold to wt was 1 fold.
On the same counts, the results for B22 are 0.091 nM and 1.9 fold.
In the same order, the values of B23 are 0.053 nM and 1.1 fold.
On the same counts, the results for B24 are 0.018 nM and 0.4 fold.
With B25, binding was characterised by a dissociation constant (Kd) of 0.025 nM and the n-fold to wt was found to be 0.5 fold.
On the same counts, the results for B26 are 0.018 nM and 0.4 fold.

For another assay, the target named is pre-existing anti-drug antibodies (ADA) present in human sera. Put plainly: pre-existing ADA ELISA, scFv coated, human sera unspiked vs spiked.
Molecule B1 gave a Mean No of serum samples >30% inhibition (30% CCP) with SCP (serum samples) of 9 and a No of serum samples >30% inhibition (30% CCP) without SCP (serum samples) of 18.
On the same counts, the results for B2 are 8 and 2.
Take B3: the Mean No of serum samples >30% inhibition (30% CCP) with SCP (serum samples) was determined as 1 and the No of serum samples >30% inhibition (30% CCP) without SCP (serum samples) was 4.
On the same counts, the results for B4 are 5 and 5.
On the same counts, the results for B5 are 2 and 7.
On the same counts, the results for B6 are 4 and 7.
As for B7, the Mean No of serum samples >30% inhibition (30% CCP) with SCP (serum samples) was 4 and the No of serum samples >30% inhibition (30% CCP) without SCP (serum samples) is 4.
For the molecule B8, the Mean No of serum samples >30% inhibition (30% CCP) with SCP (serum samples) was determined as 1 and the No of serum samples >30% inhibition (30% CCP) without SCP (serum samples) stood at 2.
On the same counts, the results for B9 are 1 and 0.
On the same counts, the results for B10 are 3 and 2.
In the same order, the values of B11 are 1 and 2.
Consider B12, for which the Mean No of serum samples >30% inhibition (30% CCP) with SCP (serum samples) is 1 and the No of serum samples >30% inhibition (30% CCP) without SCP (serum samples) amounted to 0.
On the same counts, the results for B13 are 7 and 10.
On the same counts, the results for B14 are 2 and 2.
On the same counts, the results for B15 are 1 and 2.
For B16, the Mean No of serum samples >30% inhibition (30% CCP) with SCP (serum samples) came to 3 and the No of serum samples >30% inhibition (30% CCP) without SCP (serum samples) amounted to 6.
In the same order, the values of B17 are 3 and 7.
Take B18: the Mean No of serum samples >30% inhibition (30% CCP) with SCP (serum samples) turned out to be 2 and the No of serum samples >30% inhibition (30% CCP) without SCP (serum samples) worked out at 1.
On the same counts, the results for B19 are 1 and 0.
In the same order, the values of B20 are 5 and 8.
In the same order, the values of B21 are 2 and 7.
For B22, the Mean No of serum samples >30% inhibition (30% CCP) with SCP (serum samples) was found to be 8 and the No of serum samples >30% inhibition (30% CCP) without SCP (serum samples) turned out to be 8.
Turning to B23, the Mean No of serum samples >30% inhibition (30% CCP) with SCP (serum samples) worked out at 5 and the No of serum samples >30% inhibition (30% CCP) without SCP (serum samples) was found to be 5.
The molecule B24 came in with a Mean No of serum samples >30% inhibition (30% CCP) with SCP (serum samples) of 0 and a No of serum samples >30% inhibition (30% CCP) without SCP (serum samples) of 7.
On the same counts, the results for B25 are 5 and 5.
In the same order, the values of B26 are 2 and 2.

By Kd is commonly meant the equilibrium constant for the complex coming apart. A higher Kd goes with lower affinity.
